{
  "source": "patent US8420311B2",
  "about": "“Method to block the infection by flaviviruses, molecules and uses” (Centro de Ingenieria Genetica y Biotecnologia, priority 2006, dated 2013)",
  "key": {"Vero cells": {"test_system": "Vero cells", "assay": "Binding of fluoresceinated proteins to the surface of Vero cells (flow cytometry)", "type": "cell-based, monkey", "procedure": "FIG. 7. Inhibition of the binding of DIIIE2J to Vero cells by A2M and RAPR13. The pre-fixed cells were incubated with the fluoresceinated proteins, and the intensity of the fluorescence due to binding of the fluoresceinated ligands to the cells was measured by flow cytometry. Each experimental point represents data gathered from a minimum of 20 000 cells. (A) Binding of A2M and RAPR13 to the cells. The depicted values correspond to the average of the intensity of the fluorescence at each point of the assay minus the fluorescence obtained with untreated cells. (B) and (C) The cells were incubated with fluoresceinated DIIIE2J in the presence or absence of the non-fluoresceinated ligands, using the molar ratio indicated on each case. The % binding was calculated from the ratio of the average intensity of the fluorescence of the cells incubated with the mixture of fluoresceinated DIIIE2J plus the proteins, between that of the cells incubated only with fluoresceinated DIIIE2J.\nIn the case of cultured Vero cells, they were detached from the surface of the culture flask without using proteases, by incubation with PBS pH 7.4, 5 mM EDTA for 10 min. at 37° C., gently tapping the outside of the flask.\nThe cells, collected and washed as described above, were incubated in fixing solution (PBS pH 7.4, 2% paraformaldehyde, 0.01% NaN3, 1 mM CaCl2, 1 mM MgCl2 for 30 min at 4° C., and the fixing solution was then eliminated by centrifugation at 350×g for 5 min a 4° C. […] The intensity of the fluorescence was quantified by flow cytometry on a PAS III cytometer (Partec, Germany). The values for each experimental point were calculated from measurements on a minimum of 20 000 cells.\nGiven that this cell line is derived from monkey kidney cells and that the ligands for the A2MR receptor used in the assays are of human origin, a preliminary and necessary step was the corroboration of the binding of the RAPR13 and A2M MeNH2 proteins to Vero cells. With this aim, these proteins were fluoresceinated, and their binding to the surface of Vero cells was measured using flow cytometry. […]"}, "DV2 S16803": {"test_system": "DV2 S16803", "assay": "Inhibition of the infection of Vero cells by a natural ligand of the A2MR receptor or anti-receptor antibodies (lytic plaques)", "type": "cell-based, dengue virus", "procedure": "FIG. 8. Effect of recombinant RAP on the infection of Vero cells with DV2, strain S16803. Vero monolayers at 90% confluence were pre-incubated with different dilutions of RAPR13 or BSA, for 1 hour at 37° C., followed by the addition of the viral preparation at a multiplicity of infection of 1 and another incubation at 37° C. for 1 hour. After eliminating the unbound viruses, MEM medium supplemented with non-essential aminoacids, 1% FCS and 1% CMC was added, and the cells were incubated for 5 days at 37° C. The lytic plaques were visualized by staining the monolayer with Naphtol Blue Black. The assays were performed in 24-well plates, using duplicates for each point of the assay.\nVero cells were grown in 24-well plates to approximately 90% confluence, and washed twice with MEM medium without FCS. The dilutions containing the proteins or the antibodies, according to the objective of the assay, were then added and incubated for 1 hour at 37° C. After the incubation, the virus was added at a multiplicity of infection of 0.1, followed by a subsequent incubation for 1 hour at 37° C. […] The inhibition percentage was calculated according to the expression […]"}, "DV3 CH53489": {"test_system": "DV3 CH53489", "assay": "Inhibition of the infection of Vero cells by a natural ligand of the A2MR receptor or anti-receptor antibodies (lytic plaques)", "type": "cell-based, dengue virus", "settings": "inhibition percentage; RAP13 and BSA 100 μg/mL, antibody preparations 1/100 dilution; average of three determinations", "procedure": "(§1) Vero cells were grown in 24-well plates to approximately 90% confluence, and washed twice with MEM medium without FCS. The dilutions containing the proteins or the antibodies, according to the objective of the assay, were then added and incubated for 1 hour at 37° C. After the incubation, the virus was added at a multiplicity of infection of 0.1, followed by a subsequent incubation for 1 hour at 37° C. At the end of the second incubation, the unbound virus was eliminated by washing, and the cells were incubated for 5 days at 37° C. in high density medium (MEM supplemented with non essential aminoacids, 1% FCS, 1% carboxymethylcellulose) in order to propitiate the appearance of lytic plaques. The plaques were visualized by staining with 0.1% Naphtol Blue Black in 0.15 Mol/L sodium acetate. Two replicates were used per experimental point in each assay, and three independent determinations were performed. The inhibition percentage was calculated according to the expression\n(§2) The assay for the inhibition of infection was performed on 24-well plates seeded with a monolayer of Vero cells at approximately 90% confluence. The dilution of the virus was adjusted to obtain approximately 20 lytic plaques per well. […] There were no significant reductions when the cells were pre-incubated with BSA or with antibody preparations against an unrelated antigen."}, "DV1 West Pac 74": {"test_system": "DV1 West Pac 74", "assay": "Inhibition of the infection of Vero cells by a natural ligand of the A2MR receptor or anti-receptor antibodies (lytic plaques)", "type": "cell-based, dengue virus", "settings": "inhibition percentage; RAP13 and BSA 100 μg/mL, antibody preparations 1/100 dilution; average of three determinations", "procedure": "as §1, §2"}, "DV4 TVP360": {"test_system": "DV4 TVP360", "assay": "Inhibition of the infection of Vero cells by a natural ligand of the A2MR receptor or anti-receptor antibodies (lytic plaques)", "type": "cell-based, dengue virus", "settings": "inhibition percentage; RAP13 and BSA 100 μg/mL, antibody preparations 1/100 dilution; average of three determinations", "procedure": "as §1, §2"}},
  "data": [
    {"molecule": "RAPR13: recombinant human LRPAP1 (RAP) protein with N-terminal tag of 6 histidines, SEQ ID. 26 (protein, listed as Homo sapiens, N-terminal His6 tag) MGSSHHHHHHSSGLVPRGSHMYSREKNQPKPSPKRESGEEFRMEKLNQLWEKAQRLHLPPVRLAELHADLKIQERDELAWKKLKLDGLDEDGEKEARLIRNLNVILAKYGLDGKKDARQVTSNSLSGTQEDGLDDPRLEKLWHKAKTSGKFSGEELDKLWREFLHHKEKVHEYNVLLETLSRTEEIHENVISPSDLSDIKGSVLHSRHTELKEKLRSINQGLDRLRRVSHQGYSTEAEFEEPRVIDLWDLAQSANLTDKELEAFREELKHFEAKIEKHNHYQKQLEIAHEKLRHAESVGDGERVSRSREKHALLEGRTKELGYTVKKHLQDLSGRISRARHNEL", "values": [
      {"measurement": "binding to the surface of Vero cells", "setting": "Vero cells; fluoresceinated proteins (FIG. 7A)", "result": "concentration-dependant and saturable binding behavior"},
      {"measurement": "binding of fluoresceinated A2M_MeNH2 to Vero cells in the presence of unlabelled protein", "setting": "Vero cells; unlabelled protein at 100-fold molar excess, 30 min. at 4° C. (FIG. 7B)", "result": "decrease in fluorescence"},
      {"measurement": "inhibition of the infection, DV2", "setting": "DV2 S16803; inhibition percentage, RAP13 and BSA 100 μg/mL, antibody preparations 1/100 dilution, average of three determinations", "result": 76},
      {"measurement": "inhibition of the infection for DV2, concentration dependence", "setting": "DV2 S16803; lytic plaque reduction assay, dilutions of RAPR13 (FIG. 8)", "result": "dependent on the protein concentration"},
      {"measurement": "inhibition of the infection, DV3", "setting": "DV3 CH53489", "result": 60},
      {"measurement": "inhibition of the infection, DV1", "setting": "DV1 West Pac 74", "result": 65},
      {"measurement": "inhibition of the infection, DV4", "setting": "DV4 TVP360", "result": 75}
    ]}
  ]
}
